Source: the DeepSol protein solubility set

Experiment: soluble on expression in E. coli; label from the status in PepcDB or PDB records

Sequence | soluble on expression in E. coli
MVLKTVALVGNPNVGKTTIFNALTGLRQHVGNWPGVTVEKKEGIMEYREKEFLVVDLPGIYSLTAHSIDELIARNFILDGNADVIVDIVDSTCLMRNLFLTLELFEMEVKNIILVLNKFDLLKKKGAKIDIKKMRKELGVPVIPTNAKKGEGVEELKRMIALMAEGKVTTNPIIPRYDEDIEREIKHISELLRGTPLAEKYPIRWLALKLLQRDEEVIKLVLKYLGQEKMDEILKHISELEEKYKRPLDIVIASQKYEFLEQLLRKFVVHE | soluble
MTGITVSDSAARRIAKILDSEPGKTALRVSVEGGGCSGFSYKYDLVDAQTEDDIVIEKLGARVLIDSISVPYMDGSEIDFVDDLMGQSFQIRNPNATASCGCGTSFAILEHHHHHH | soluble
MVRVGILGASGYGGAELLRLLKAHPEVELVGFSSRKYEGRPLEAAWPQLWDGRLFAAQEEVLERAEVVFLALPNGLSMEIAPEALKAGKRVVDLSGDFRLPPEVYEAWYRIPHKSPDLYREAVYGLPELHREELKGARLVANPGCYVTAATLALAPLAAEGVLKGAFVVGLSGVSGAGREAEGTAFAEVNENLKPYKAGGTHRHIPEMERNLGRILAQGRRVRTHGEARAVRLSFTPHLVPMTRGILVTAEAEVEGAWSQESLEALYRDFYAGEPFVRVLKGLPETKATLGSNRVDVRPLYEERTGRVLVFAALDNLVKGMAGQAVQNLNLMLGLPEETALPKEGLWP | soluble
SDYEKFLLFGDSITEFAFNTRPIEDGKDQYALGAALVNEYTRKMDILQRGFKGYTSRWALKILPEILKHESNIVMATIFLGANDACSAGPQSVPLPEFIDNIRQMVSLMKSYHIRPIIIGPGLVDREKWEKEKSEEIALGYFRTNENFAIYSDALAKLANEEKVPFVALNKAFQQEGGDAWQQLLTDGLHFSGKGYKIFHDELLKVIETFYPQYHPKNMQYKLKDWRDVLDDGSNIMS | soluble
MGSDKIHHHHHHMFKKYDAYLVGYYGMQNSGDDALMYATAWAAKNILGCNNTKVGLYGDYARETQSDNQLPLKFTQQFPGQNRLLHYKTAIQSKRIIFGGGSVLHSESDINLKRQLMSLANQKKSLAVGIGIGPFNSVMAEKSCAKFLNECGYVGVRDNASLAIARNIAPHANVHKTFDLAPLLLCSKQYKPSNRERQGIALTLCSVAIDAMGNTDELEEEKRVEQFVQLITKIYARTGEPITLIEFNGHNVLGDWKINNNIITRLLDKYIPVSIKKYDPNPIALLNKLSGYKAIVSMRLHGSILGYLANTPVLSINYHSKCKGWCDEVGMPEDYKIDLFNLNIEKIVSQIALGVSTTFQQPTLSINNALKNSLSNWSTQNEQFKFYRNYSTV | not soluble
MHHHHHHSSGVDLGTENLYFQSMASSHLNKGIKQVYMSLPQGEKVQAMYIWIDGTGEGLRCKTRTLDSEPKCVEELPEWNFDGSSTLQSEGSNSDMYLVPAAMFRDPFRKDPNKLVLCEVFKYNRRPAETNLRHTCKRIMDMVSNQHPWFGMEQEYTLMGTDGHPFGWPSNGFPGPQGPYYCGVGADRAYGRDIVEAHYRACLYAGVKIAGTNAEVMPAQWEFQIGPCEGISMGDHLWVARFILHRVCEDFGVIATFDPKPIPGNWNGAGCHTNFSTKAMREENGLKYIEEAIEKLSKRHQYHIRAYDPKGGLDNARRLTGFHETSNINDFSAGVANRSASIRIPRTVGQEKKGYFEDRRPSANCDPFSVTEALIRTCLLNETG | soluble
MSLKVTMEFIANQLGITKNTVSLALRNMPGVSEKTRKEILRTAEKYGYIYKKSNSKNSKSNSRTGSICLMLSNDTKNSVGFFSFIQYGVESEGKRNGLNTILYCFDDNKEFQPPVCIRDGIVSGIITLGRISRKTVSSIISLNLPLVIVDDFFDDIKASYVLTDNLSGGYTATEYLIKSGHRSIGFFGDIFASPSFFDRYMGYLKAHVQYNLPVNSSFSIIDKNMAVLLHEGVDKVVDELKKIPQLPTAMFCCNDVEAIALYKAFSVMGISVPDDISIIGFDDIESSTSVSPELTTMHINKEAMGERAVKKLIEKMNGQESMDEKIVLPVTLIERQSVKREGHHHHHH | soluble
MSLSEYRRKRSFDKTREPEPGKTLPPGQRAIFVVQLHHASRRHYDFRLQVGDALKSWAVPKGPSYDPKVKRMAVEVEDHPVDYASFEGEIPRGEYGGGHVAQFDHGVWATAGDPEAQLAKGHLRFELFGNKLKGGWHLVRSGKPARQPQWLLFKEDDAYAGLEHHHHHH | soluble
MKKVIFKPLKSYPVKMAMIALTLLAASPITHAEESKMKNATITVTATGENQATPDMAIINLAVVTQDKTAQKALADNNKSMNDIINAFKNNGIQANDLQTSGLSIYQSNPNKDHEKKNNGIVYHVSNSLTVRIRDLSNAGKIFDQAMALGVNSVHGITFTNANTKPFYQEARKKAIAEAIEKAKTIAEAADLKLGKIIKINENDDNYYSRPHLMSKAVNANYTDTTFSSGELNYSVSVTIVFAID | not soluble
GPVDNNNNNGLKNSTEPIYAKVNKKKTGQVASPEEPIYTQVAKKVNAKIDRLNQIASGLGGVGQAAGFPLKRHDKVDDLSKVGLSASPEPIYATIDDLGGPFPLKRHDKVDDLSKVGRSRNQELA | soluble
KGLSADKKYFETRVNPTSVFWTGGKWKERLVQIMSQTQEQDILKFLKQTASPAMHELQRELSEEYGLSVRVDKMFHRDEPAIEFVIRKETMRDFMYGIKSVGQDVSDQLINDGKLPHIRHQTTYKPYAYFFDGRVGYDVQYMNKDELIADILKNYERYLMLLDDVGQELMAHEQVELAE | not soluble
MSQLVYFSSSSENTQRFIERLGLPAVRIPLNERERIQVDEPYILIVPSYGGGGTAGAVPRQVIRFLNDEHNRALLRGVIASGNRNFGEAYGRAGDVIARKCGVPWLYRFELMGTQSDIENVRKGVTEFWQRQPQNA | soluble
MNKKELIDRVAKKAGAKKKDVKLILDTILETITEALAKGEKVQIVGFGSFEVRKAAARKGVNPQTRKPITIPERKVPKFKPGKALKEKVK | soluble
MGSDKIHHHHHHMDRLIYTAMTGLKHIMEQQSTTANNLANATTTGFRAQIDSFRAVPVLSDGLPTRAFVVDATVGTNFNSGVINTTGRELDLAIRDQGWFAVQRPDGTEAYTRNGNFKLNENGVLQTQDGMMVLGDNGPITIPLEAKVAFANDGMVSAVATNVVPLFTNMIGRLKLVNPGDDNLVRGPDGLFETRNREPVPASANVTIVSGALEGSNVNVVEEMVNMISQARQFDLQTKLIQNAENNATKAGQIFSLS | not soluble
MGSDKIHHHHHHMLITETFHDVQTSYGTTLRIYVYSPKIAGYPQAKFPGVILYSEIYQVTGPVRRFGQRIASEGYVVVAPAIYHNFMGPEALPYDVQGTDIGNEYKIKKPLESYDEDNKLCCDLLFQLPQFDGKRIGSTGMCLGGHLAFRALLDKRVTCATCFFPTDIHSRTLGLGQNDNSLERVSKELGNNQEMVLIFGTADTHVDPQGRDLIRKTLRDHGVKFTFLEILAAQHAFIRDEFSKGRFDSAITQSCLGFLFEQFNRKLRIDLGEFVDDNTPLEHVC | not soluble
MSGALFLIPAPLGDETVAWLPEGERAKVVHITHFVVEAEKTARKHLKALGVTTPIRELSMSTLNEHTKETDVAALLAPLQAGHDVGLISEAGCPAVADPGAQLVALAHQRDIRVEPLIGPSSILLALMASGANGQCFAFHGYLPVDAAEKSKLVKELEQRSRKHNETQLFIETPYRNNALLAQLRETLAPSTRLAVACDLTLPTQTIVSHRVQDWPQNPPDLHKRPAIFVIHAALEHHHHHH | soluble
SAAVGAEARGAWCVPCLVSLDTLQELCRKEKLTCKSIGITKRNLNNYEVEYLCDYKVVKDMEYYLVKWKGWPDSTNTWEPLQNLKCPLLLQQFSNDKHNYLSQVITSEEAERRGQFYDNKGITYLFDLDYESDEFTVDAARYGNVSHFVNHSCDPNLQVFNVFIDNLDTRLPRIALFSTRTINAGEELTFDYQMKGSGDISSDSIDHSPAKKRVRTVCKCGAVTCRGYLN | soluble
MSLTDLSRPTLPGALPDKRQVAASFSRAAASYDSVAALQRAVGLSLLEQLPAGLQPSHWLDLGSGTGHFSRMLAERFAQAGGVAVDIAEGMLLHARHVKGGAQYHVVGDAERLPLRDASVDLVFSSLAVQWCDQFASVLAEAQRVLRPGGVLAFSSLCVGTLDELRASWQAVDGLVHVNRFRRFEDYQRLCAASGFEQLELERCPHVLHYPDVRSLTHELKALGAHNLNPGRPSGLTGRARMQGLLQAYEAFRQPAGLPATYQVVYGVLRKPLAEGHHHHHH | not soluble
MSLNIQAIDTRHGTANQHSFSNGNCLPYTGVPFGMNFYAPQTTDQKGSWWFHPEDRTFQGYRVTHQPSPWMGDFSHLLMTPVSGSLSELSLFHAQSSYRPEESLFSPVEINLTQLRYQITSQLIPSMYGGILTIDYQQKDNHLLLTLPGRYQVKQLDDHQVAVKVINYSGCEDPDFSFYFVLHFEQPLTKWFAPSSGEDGKILLSFGNIAQQVVHFSSSFISEKQAQLNLAREISLRSTEMLQQGIADWHNYFDRLKVTHENPEHTKTFYHTLYRTFLFPQTFYELDENQQPIHYDTFSQTVRPGVLYTNNGFWDTYKTVYPLFSLIAQEKYEEMLEGFLNSYNETGFLPKWLSPDERGLMPGTLIDAVIADAAVKKIRPDLMPQFLEAMKKGATQQSERENYGRQGTLDYLKYGYVPSTYHESVNHTLDYAYSDFCISQVAKTLNDSETATFYRQQALNYQQLFNPETGFMQAKDTEGNFRPDFLDIRWGKDYAEGSAWQSSFAVYQDFAGLIKLYGSELAFEKKLIQLCNQAPNFNVEGYGFEIHEMSEMAAIDFGQLAISNQPSFHYPFLFSYIGKPEMAQPLLKQLMQTFDASPTGYPGDEDNGSMSAWYIFNSLGFYPVTPGTGEYVIGMPLVQTAEVKLSNGKQLTIQTSPNKVQQQFIHEIQLNQEKHTAPYFTHQELLNGGTLDYQLGIVPNPQNTAERPFSLSTEKEGGSHHHHHH | soluble
MSGLPQGRPTFGAAQNVSAVVAYDLSAHMLDVVAQAAEARQLKNITTRQGYAESLPFADNAFDIVISRYSAHHWHDVGAALREVNRILKPGGRLIVMDVMSPGHPVRDIWLQTVEALRDTSHVRNYASGEWLTLINEANLIVDNLITDKLPLEFSSWVARMRTPEALVDAIRIYQQSASTEVRTYFALQNDGFFTSDIIMVDAHKAALEHHHHHH | not soluble
MFEKVIKLWRDTFPKSEHKLMSIEYVAAIEEFNEYFPGYAAMNDSNYSKLQHFFRSLHPIGCIKPFRFHYSSAFALENSLDDYLLKNAQFKRDGLAGEWAIHIFADHNDHIIEKYRMYKKKRLEKLERTFEERKKKAER | not soluble
ELIRVGVVGTGYMGENHVRIYSEMEDVRLIGISDPNSSRVKELAARYETLPFSDHKKMFGKTNLDAISIAAPTTLHCPIVLDALEAGVDVLVEKPIADSVENATAMIESAEEMDRHLMVGHIERFNPAVLKLKEVVDSGVLGKIVSV | not soluble
GPGSMKATIITPGETYRILAPASSLHKYLTDSYWCSAMEEVCEGKLDGVAVRYTGQQLVLLQFRPKQLSPAGYRYPISMSIPVEYLVPISTEESTEDHNICKHDTNYGTKESTFLGSGFAPLCVVCGRYNVPGMVLRHHGYKCPECVGHKSTRKLRMEGARRR | not soluble
MHHHHHHSSGRENLYFQGNFDYMFKLLIIGNSSVGKTSFLFRYADDTFTPAFVSTVGIDFKVKTVYRHEKRVKLQIWDTAGQERYRTITTAYYRGAMGFILMYDITNEESFNAVQDWATQIKTYSWDNAQVILVGNKCDMEEERVVPTEKGQLLAEQLGFDFFEASAKENISVRQAFERLVDAICDKMSDS | soluble
